Target: the molecule itself
Assay: crystal structure

B1: Human placental aromatase (cytochrome P450 aromatase, CYP19A1) (enzyme, UniProt P11511 1-503, looked up)
chain: MVLEMLNPIHYNITSIVPEAMPAATMPVLLLTGLFLLVWNYEGTSSIPGPGYCMGIGPLISHGRFLWMGIGSACNYYNRVYGEFMRVWISGEETLIISKSSSMFHIMKHNHYSSRFGSKLGLQCIGMHEKGIIFNNNPELWKTTRPFFMKALSGPGLVRMVTVCAESLKTHLDRLEEVTNESGYVDVLTLLRRVMLDTSNTLFLRIPLDESAIVVKIQGYFDAWQALLIKPDIFFKISWLYKKYEKSVKDLKDAIEVLIAEKRRRISTEEKLEECMDFATELILAEKRGDLTRENVNQCILEMLIAAPDTMSVSLFFMLFLIAKHPNVEEAIIKEIQTVIGERDIKIDDIQKLKVMENFIYESMRYQPVVDLVMRKALEDDVIDGYPVKKGTNIILNIGRMHRLEFFPKPNEFTLENFAKNVPYRYFQPFGFGPRGCAGKYIAMVMMKAILVTLLRRFHVKTLQGQCVESIQKIHDLSLHPDETKNMLEMIFTPRNSDRCLEH
Does B1 bind?
Result: binds
